The results in this text go back to US20240309087A1 (SHANGHAI JUNSHI BIOSCIENCES, published 2024).

In general, IC50 refers to the concentration that gives 50% inhibition. The Kd is the constant that tells how readily two partners part at equilibrium. As a reminder, the EC50 is the concentration at which the effect is half-maximal.

Test [1] has as its target T1, hCD112R mFC recombinant protein (human; murine, UniProt Q6DKI7 41-160).
T1 construct: range 41-160; expressed in 293E cells; also called hCD112R ECD mFC; hCD112R-ECD-mFC; not shown: murine IgG2a Fc domain (MX2-mFc vector)
T1 sequence (looked up): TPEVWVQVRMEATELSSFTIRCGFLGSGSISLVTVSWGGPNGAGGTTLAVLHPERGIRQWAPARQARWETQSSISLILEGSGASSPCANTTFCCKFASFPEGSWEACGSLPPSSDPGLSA
Kind of test: FACS competition, hCD112R mFc on CHO CD112 cells. The procedure: Unbound antibodies were then washed with a staining buffer and the cells were incubated with 1% (v/v) goat anti-mouse IgG Fc fluorescent secondary antibodies (Jackson ImmunoResearch) prepared in a staining buffer at 4° C. for 30 min in the dark. Finally, the cells were collected by using a flow cytometer, and the fluorescent antibodies bound to the cell surface were detected. Raw data were analyzed by using FlowJo to obtain MFI values, and a four-parameter curve fitting was performed by using GraphPad Prism software to obtain IC₅₀ values.

For test [2], the target named is T1, hCD112R mFC recombinant protein. In words: Biacore T200, antibody captured, hCD112R mFc injected. The procedure:
Biacore T200 was used to assay the binding affinity of the anti-CD112R hybridoma antibodies for the recombinant hCD112R mFc protein. […] antibody fragments (Jackson ImmunoResearch) were coupled to the surface of a CM5 chip, and the anti-CD112R hybridoma antibodies were each captured by using the chip, after which recombinant hCD112R mFc proteins at different concentrations were injected into the CM5 chip.
For orientation: SPR reads the build-up and loss of mass on a sensor chip optically.

For test [3], the target named is T2, recombinant cynomolgus monkey CD112R antigen (cynomolgus monkey, UniProt A0A2K5WVV8 1-322).
T2 construct: bought
T2 sequence: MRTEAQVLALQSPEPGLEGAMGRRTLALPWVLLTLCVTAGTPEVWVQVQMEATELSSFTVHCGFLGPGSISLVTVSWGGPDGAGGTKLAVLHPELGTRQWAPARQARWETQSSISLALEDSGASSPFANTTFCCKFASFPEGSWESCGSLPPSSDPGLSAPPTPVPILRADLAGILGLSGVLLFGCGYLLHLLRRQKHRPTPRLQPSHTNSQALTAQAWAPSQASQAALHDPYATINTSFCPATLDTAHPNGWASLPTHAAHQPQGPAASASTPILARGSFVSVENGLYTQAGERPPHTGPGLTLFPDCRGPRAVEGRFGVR
Kind of test: ELISA, coated cynomolgus monkey CD112R; EC50 Ref/EC50 antibody. The procedure: (§1) A plate was coated with a recombinant cynomolgus monkey CD112R antigen (Acrobiosystems, Cat No. PVG-C5259) at a fixed concentration, and the chimeric anti-CD112R antibodies diluted in a gradient (initial concentration: 1 μg/mL, 2.5-fold gradient dilution, 12 concentration gradients in total) were added to bind to the antigen. Horseradish peroxidase (HRP)-conjugated mouse anti-human IgG4 Fc (Southern Biotech, 9200-05) was subjected to a 5000-fold dilution and used as a detection antibody for detection. The color development was performed with 0.1 mg/mL TMB, and finally stopped with 2 M hydrochloric acid. The plate was read at 420 nm/620 nm. EC₅₀ was obtained by fitting with a four-parameter logistic regression (4PL) model.
A general note: In an ELISA, binding on a coated surface is turned into a signal by an enzyme label.

The target in test [4] is T3, human CD112R on CHO-CD112R cells (human, UniProt Q6DKI7 41-326).
T3 construct: whole, on cells; also called hCD112R; PVRIG
T3 sequence (looked up): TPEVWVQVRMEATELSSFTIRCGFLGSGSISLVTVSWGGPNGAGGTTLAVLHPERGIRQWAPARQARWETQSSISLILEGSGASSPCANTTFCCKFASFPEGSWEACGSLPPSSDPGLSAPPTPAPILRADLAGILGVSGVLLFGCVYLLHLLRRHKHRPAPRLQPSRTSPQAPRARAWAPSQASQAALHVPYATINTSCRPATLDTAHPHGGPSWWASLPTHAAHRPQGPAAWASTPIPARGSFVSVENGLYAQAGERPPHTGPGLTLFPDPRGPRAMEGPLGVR
In words: FACS on CHO-CD112R cells. As for the experimental part: (§2) CHO-CD112R cells (constructed in-house by Junshi, the amino acid sequence of CD112R in the construction of stable cell lines overexpressing CD112R comprises amino acids at positions Met1-Arg326 under NCBI accession No. Q6DKI7) overexpressing human CD112R were incubated with each of the chimeric anti-CD112R antibodies at different concentrations (initial concentration: 50 μg/mL, 5-fold dilution, 12 concentration gradients in total) at 4° C. for 30 min, and then washed and incubated with a fluorescence-labeled secondary antibody at 4° C. for 30 min in the dark. Finally, the cells were collected by using a flow cytometer (BD Canto II), and the fluorescent antibodies bound to the cell surface were detected. Raw data were analyzed by using FlowJo to obtain MFI values, the antibody dose-dependent binding curves were fitted by using GraphPad (FIG. 3, a and b) and EC₅₀ was calculated (Table 3). The positive control and the negative control were Ref (anti-CD112R antibody, University of Colorado, obtained by expression and purification according to the sequences in US20170240613) and anti-KLH hu-IgG4 antibody, respectively.

Test [5] concerns the target T4, human CD112R on Jurkat CD112R effector cells (human, UniProt Q6DKI7 1-326).
T4 sequence (looked up): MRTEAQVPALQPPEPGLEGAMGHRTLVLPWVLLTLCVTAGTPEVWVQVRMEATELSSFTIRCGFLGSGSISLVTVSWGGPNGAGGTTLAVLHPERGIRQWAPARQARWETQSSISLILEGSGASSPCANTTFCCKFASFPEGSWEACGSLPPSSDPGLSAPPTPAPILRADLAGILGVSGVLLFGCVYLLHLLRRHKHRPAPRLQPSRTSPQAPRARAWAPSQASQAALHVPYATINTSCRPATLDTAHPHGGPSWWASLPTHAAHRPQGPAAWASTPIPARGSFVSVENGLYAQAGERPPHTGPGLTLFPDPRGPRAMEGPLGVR
Kind of test: cell-based or functional assay.

Test [6] concerns the target T2, recombinant cynomolgus monkey CD112R …. In words: ELISA, coated cynomolgus monkey CD112R. As for the experimental part: as §1
In test [7] the target is T1, hCD112R mFC recombinant protein. Kind of test: FACS competition, hCD112R mFc on CHO CD112 cells; ratio Ref/antibody. The procedure:
(§3) Cells CHO CD112 overexpressing human CD112 were co-incubated with a hCD112R mFc protein solution (5 μg/mL) prepared in a staining buffer (PBS+1% FBS), and the chimeric anti-CD112R antibodies or the control antibodies at different concentrations (initial concentration: 100 μg/mL, 3-fold dilution, 10 concentration gradients) at 4° C. for 30 min. Unbound antibodies were then washed with a staining buffer and the cells were incubated with 1% (v/v) goat anti-mouse IgG Fc fluorescent secondary antibodies (Jackson ImmunoResearch) prepared in a staining buffer at 4° C. for 30 min in the dark. Finally, the cells were collected by using a flow cytometer (BD Canto II), and the fluorescent antibodies bound to the cell surface were detected. Raw data were analyzed by using FlowJo to obtain MFI values, and a four-parameter curve fitting was performed by using GraphPad Prism software to obtain IC₅₀ values. The positive control and the negative control were Ref (anti-CD112R antibody, University of Colorado, obtained by expression and purification according to the sequences in US20170240613) and the anti-KLH hu-IgG4 antibody, respectively.

Test [8] concerns the target T3, human CD112R on CHO-CD112R cells. Kind of test: FACS on CHO-CD112R cells; EC50 Ref/EC50 antibody. The procedure: as §2
In test [9] the target is T1, hCD112R mFC recombinant protein. Kind of test: FACS blocking: hCD112R mFc (5 µg/mL) binding to human CD112 on CHO CD112 cells, MFI-APC; unit from the axis (µg/mL), Table 8 says ng/ml. As for the experimental part: as §3
Test [10] has the same target. In words: FACS competition, hCD112R mFc on CHO CD112 cells. As for the experimental part:
as §3
As shown in FIG. 5 (a and b) and Table 8, the following 13 chimeric antibodies were all capable of effectively blocking the binding of the CD112R protein to CHO-CD112 cells.
The source holds these as a separate data set.

B1: 6D2.1 (antibody, V domains shown)
VH: EVQLQQSGPELVKPGASVKISCKASGYTFTDYNIHWVKQSHGKRPDWIGYNYPYNGGAGYNQNFRSRATLTVDKFSSTAYMELRSLTSEDSAVYYCAGEEVRRGPFYFWGQGTSVTVSS
VL: DIQMTQSPDSLSASVGETVTITCRTSENIYSFLVWYQQKQGKSPQLLVYNAKTLAEGVPSRFSGSGSGTQFSLKINSLQPEDFGTYYCQHYYGTPYTFGGGTKLEIK
notes: murine hybridoma antibody
For the molecule B1, in test [1], the 50% inhibitory concentration (IC50) stood at 0.272 µg/mL. In test [2], the Kd was found to be 0.0134 nM.

B2: 8D3.1 (antibody, V domains shown)
VH: QIQLVQSGPELKKPGETVKISCKASGYTFTDYSMHWVKQAPGKGLKWVGWISTETAQPTYADDFRGRFAFSLETSASTAYLQINNLRNEDTATYFCATGNYGWYFSVWGAGTTVTVSS
VL: ENVLTQSPAIMSASPGEKVTMTCRATSGVSSSYLFWYQQKSGASPKIWIYSTSNLASGVPTRFSGSGSGTSYSLTISSVEAEDAATYYCQQYSGYPYTFGGGTKLEIK
notes: murine hybridoma antibody
For the molecule B2, in test [1], the half-maximal inhibitory concentration (IC50) worked out at 0.148 µg/mL. Moreover, in [2], the Kd was found to be 0.0158 nM.

B3: Chi-61 (antibody, V domains shown)
VH: DVKLVESGGGLVKLGGSLKLSCAASGFTFSSYHMSWVRQTPEKRLELVAAISRDGDSTYYPDTVKGRFTISRDDAENTLYLQMSSLKSEDTALYYCSRHEDYFGFAMDSWGQGTSVTVSS
VL: SIVMTQTPKFLLVSAGDRVTITCKASQSVSNDVAWYQEKPGQSPKLLMYYVSHRFTGVPDRFTGSGYGTDFTFTINTVQAEDLAVYFCHQAYRSPWTFGGGTKLEIK
notes: chimeric
Turning to B3, the “Relative activity (%)” value in test [3] was determined as 83.8%; in [7], 110%; in test [8], 3990%. The EC50 was 0.107 µg/mL in test [4] and 0.005 µg/mL in test [6]. Besides, in test [5], the “EC50, CD112R/CD112 reporter” value was 0.019 µg/mL. In test [5], the “Relative activity (%), EC50 Ref/EC50 antibody” value was 1590%. Also, the IC50 in test [9] and in test [10] was 0.965 µg/mL each time.

B4: 6A6.1 (antibody, V domains shown)
VH: EVQLQQSGAELVRSGTSVTLSCTASGFNIRDYFIHWVKQRPEQGLEWIGWIIPASGDTDCAPIFQGKATLTADTFSNTAYLHLNSLTSEDTAVYYCNTWVWSPYAVDYWGQGTSVTVSS
VL: DVLMTQTPLSLPVSLGDQTSISCRSSQSIVHSNGNTYLHWYLQKPGQSPKLLIYKVSNRFSGVPDRFSGSGSGTDFTLKISRVEAEDLGVYYCFQGSHVPWTFGGGTRLEIK
notes: murine hybridoma antibody
Turning to B4, the half-maximal inhibitory concentration (IC50) in [1] was found to be 0.145 µg/mL. Moreover, the Kd in [2] came to 0.0174 nM.

B5: 5B1.1 (antibody, V domains shown)
VH: EVQLQQSGAELVRSGTSVTLSCTASGFNIRDYFIHWVKQRPEQGLEWIGWIIPASGDTDCAPIFQGKATLTADTFSNTAYLHLNSLTSEDTAVYYCNTWVWSPYAVDYWGQGTSVTVSS
VL: DIVMTQFPSSLSVPVGEKVTMNCKSSQSLLNSGNQKNFLAWYQQKPGQPPKLLIYGASTRESGVPYRFTGSGSGTDFTLTISSVQAEDLAVYYCQNDHSYPWTFGGGTKLEIK
notes: murine hybridoma antibody
As for B5, the IC50 in [1] is 0.147 µg/mL. For the same molecule, the Kd in [2] amounted to 0.0163 nM.

B6: 6C6.1 (antibody, V domains shown)
VH: EVQLQQSGPELVRPGASVRISCKASGYTFTDYNMNWVKQSHGKSLEWIGYIYPYNGGAGYNQNFKNKATLTVDTYSRAAYMELRSLTSEDSAVYYCARERGMQRDYFDYWGQGTILTVSS
VL: DIQMTQSPASLSVSVGETVTITCRTSENIYSNLAWYQQKQGKSPQLLVYAATNLADGVPSRFSGSGSGTQFSLKINSLQSGDFGSYFCQHFWGTPYTFGGGTKLEIK
notes: murine hybridoma antibody
As to B6, in test [1], the IC50 was found to be 0.0229 µg/mL. The Kd in test [2] was 0.0205 nM.

B7: 1D11.1 (antibody, V domains shown)
VH: EVQLQQSGPELVKPGASVKISCKASGYPFINYNIHWLRQSRGKSLEWIGYVYPYNGVPGYNQKFKSKATLTADNSFSTAYMEFRSLTSEDSAVYFCARERGRDYFDSWGQGTSLTVSS
VL: DIQLTQSPASLSVSVGETVTITCRVSANIYSNLVWYHQRQGKSPQLLVYGGTNLADGVPSRFSGSGSGTQFSLKINSLQSEDFGSYHCQHFWSTPYTFGGGTKLEIK
notes: murine hybridoma antibody
On to B7, for which the half-inhibitory concentration (IC50) in [1] was determined as 0.207 µg/mL. Also, the Kd in [2] turned out to be 0.0236 nM.
